Results from US8008547B2, “Glyphosate-N-acetyltransferase (GAT) genes” (E.I. duPont de Nemours, priority 2000, dated 2011).

Assays:
[1] = test system: Nicotiana tabacum L. Xanthi leaf explants; assay: Tobacco shoot regeneration with glyphosate selection; assay type: cell-based; conditions: explants lacking a GAT gene
From the text: Agrobacterium-mediated transformation of plant cells occurs at low efficiencies. To allow propagation of transformed cells while inhibiting proliferation of non-transformed cells, a selectable marker is needed. Antibiotic markers for kanamycin and hygromycin and the herbicide modifying gene bar, which detoxifies the herbicidal compound phosphinothricin, are examples of selectable markers used in plants (Methods in Molecular Biology, 1995, 49:9-18). […] An evolved GAT gene (0—5B8), SEQ ID NO: 190, was cloned between a plant promoter (enhanced strawberry vein banded virus) and a […] terminator and introduced into the T-DNA region of the binary vector pMAXY3793 suitable for transformation of plant cells via Agrobacterium tumefaciens EHA105 as shown in FIG. 12. A screenable GUS marker was present in the T-DNA to allow confirmation of transformation. Transgenic tobacco shoots were generated using glyphosate as the only selecting agent.
Axillary buds of Nicotiana tabacum L. Xanthi were subcultured on half-strength MS medium with sucrose (1.5%) and Gelrite (0.3%) under 16-h light (35-42 μEinsteins m^−2 s^−1, cool white fluorescent lamps) at 24° C. every 2-3 weeks. Young leaves were excised from plants after 2-3 weeks subculture and were cut into 3×3 mm segments. A. tumefaciens EHA105 was inoculated into LB medium and grown overnight to a density of A600=1.0. […]

tobacco plants = assay: Herbicide spray tests of GAT expressing tobacco plants; assay type: in vivo, Nicotiana tabacum
Method: Tobacco shoots generated as described in EXAMPLE 9 were excised from the explants and transferred to basal root induction (BRI) medium composed of half-strength Murashige and Skoog (MS) medium, pH 5.7, with 1.5% sucrose, 0.3% Gelrite, 0-200 uM glyphosate and 400 ug/ml Timentin. Rooted plants and axillary shoots were clonally propagated by cutting the stem and transferring it to fresh BRI medium until the desired number of clones was obtained. Rooted plants were carefully removed from the solid medium. Prior to placing the plants into small pots of soil, the roots were washed to remove any remaining Gelrite. A protective plastic cover was kept over the plants for at least one week until the plants were well established.
To determine if GAT expressing tobacco plants could tolerate simulated field rate sprays of glyphosate, clonal lines of several events per GAT variant were tested. A typical test was set up as follows: One clone from each event was sprayed with 1 ml of solution containing the isopropylamine salt of glyphosate (Sigma P5671) and 0.125% Triton X-100, pH 6.8 such that the amount of active ingredient sprayed was equivalent to that present in commercial glyphosate products. For example, to achieve 32 oz/acre (1×) of herbicide containing 40% active ingredient (“ai”), 2.4 ul of 40% ai formulation was diluted into 1 ml water and sprayed on a plant in a 4-inch square pot (16 in^2). A mock application (0×) with surfactant only was also included. In some cases a second spray was applied 1-4 weeks later. Plants were kept in controlled growth rooms at 25° C. and 70% humidity with 16 hr light.
Seed-grown wild type plants were also sprayed. […] All 0× plants were healthy, including the non-GAT control plants. Three weeks later all of the surviving plants were sprayed with an 8× dose.

[2] = GAT activity (acetylation of glyphosate), general statements; assay type: biochemical; conditions: native YitI of Bacillus subtilis
From the text: As used herein, the term “glyphosate-N-acetyltransferase activity” or “GAT activity” refers to the ability to catalyze the acetylation of the secondary amine group of glyphosate, as illustrated, for example, in FIG. 1. A “glyphosate-N-acetyltransferase” or “GAT” is an enzyme that catalyzes the acetylation of the amine group of glyphosate, a glyphosate analog, and/or a glyphosate primary metabolite (i.e., AMPA or sarcosine). In some preferred embodiments of the invention, a GAT is able to transfer the acetyl group from Acetyl CoA to the secondary amine of glyphosate and the primary amine of AMPA. […] The exemplary GATs described herein are active from pH 5-9, with optimal activity in the range of pH 6.5-8.0. Activity can be quantified using various kinetic parameters which are well known in the art, e.g., kcat, KM, and kcat/KM. These kinetic parameters can be determined as described below in Example 7.

maize plants [3] = assay: T1 field glyphosate spray of maize expressing GAT transgenes; assay type: in vivo; conditions: 0×, 4×, 8×, and 4×+4× sprays at V3 and V8; scored 10 days after treatment
Method: Maize plants expressing GAT variant transgenes 18-28D9b (SEQ ID NO:814) and 17-15H3 (SEQ ID NO:549) were produced using the methods described in Example 13. T1 plants were used for the generation of glyphosate field-tolerance data. The T1 plants were treated in the field with four different glyphosate spray treatments (0×, 4×, 8×, and 4×+4×) for each event. The plants were sprayed at V3 and V8. Plants were scored 10 days after treatment for leaf discoloration and plant height comparisons as described in Example 13. […] T2 seeds were collected for further studies.

maize plants [4] = assay: Effect of temperature variation on glyphosate tolerance of T1 maize expressing GAT transgenes; assay type: in vivo; conditions: cool/cold, warm and hot conditions; 0×, 4×, 6×, 8× at V2; scored at 5 and 14 days
Method: Maize plants expressing GAT variant transgenes 10—4F2 (SEQ ID NO:202), 17-15H3 (SEQ ID NO:549), and 18-28D9b (SEQ ID NO:814) were produced using the methods described in Example 13. The effect of temperature on glyphosate tolerance was evaluated in T1 plants. The T1 plants were grown in cool/cold (day 14° C., night 8° C.), warm (day 28° C., night 20° C.), and hot (day 37° C., night 20° C.) conditions. T1 plants were sprayed at V2 with four different glyphosate spray treatments (0×, 4×, 6×, and 8×). Plants were scored at 5 and 14 days after treatment for leaf discoloration and plant height comparisons as described in Example 13.

[5] = KM for Acetyl CoA by mass spectrometric detection of N-acetyl glyphosate; assay type: biochemical; conditions: for Km: read-out: apparent KM for Acetyl CoA, 5 mM glyphosate, 0.19 μM GAT, pH 7.7, 50% methanol
Method: Initial reaction rates were determined using mass spectrometric detection of N-acetyl glyphosate. Five μl were repeatedly injected into the instrument and reaction rates were obtained by plotting reaction time vs. area of the integrated peak (FIG. 6). Hyperbolic saturation kinetics were observed (FIG. 7), from which an apparent KM of 2 μM was derived.
KM for Acetyl CoA was measured using the mass spectrometry method with repeated sampling during the reaction. AcetylCoA and glyphosate (ammonium salts) were placed as 50-fold-concentrated stock solutions into a well of a mass spectrometry sample plate. Reactions were initiated with the addition of enzyme appropriately diluted in a volatile buffer such as morpholine acetate or ammonium carbonate, pH 6.8 or 7.7. The sample was repeatedly injected into the instrument and initial rates were calculated from plots of […] and peak area. KM was calculated as for glyphosate.

[6] = Apparent KM for glyphosate of purified GAT from B. licheniformis strain B6 (spectrophotometric, 235 nm); assay type: biochemical; conditions: 200 μM Acetyl CoA, 1 μM purified GAT, pH 7.7, 20% ethylene glycol
From the text: Hyperbolic saturation kinetics were observed (FIG. 5), from which an apparent KM of 2.9±0.2 (SD) mM was obtained.

[7] = Transfer of the propionyl group from propionyl CoA to glyphosate (DTNB); assay type: biochemical; conditions: 1 mM propionyl CoA, 5 mM glyphosate or no glyphosate, 30 minutes
Method: The ability of GAT variants (B6 (SEQ ID NO:7), 0—6D10 (SEQ ID NO:448), 17-15H3 (SEQ ID NO:601), and 20-8H12 (SEQ ID NO:816)) to transfer the propionyl group from propionyl CoA to glyphosate was tested in reaction mixtures containing 5 mM glyphosate or no glyphosate. Propionyl CoA was present at 1 mM. After 30 minutes the reactions were terminated and the presence of free […] was determined by the addition of DTNB.

O=C(O)CNCP(=O)(O)O [glyphosate, N-phosphonomethylglycine]
glyphosate concentration that completely inhibited any shoot formation [1]: greater than 20 uM | plant response two weeks after glyphosate spray (tobacco plants; 0.5, 2 or 4× glyphosate, vector only and seed grown wild type tobacco): stopped growing, wilted, and turned brown | plant response after 8× dose (tobacco plants; 8× glyphosate, non-GAT 0× control tobacco plants): died within two weeks

B1: YitI: most closely related sequence available in Genbank, yitI from Bacillus subtilis (protein, UniProt O06744 1-149, looked up)
Uncharacterized …: MLEVKTISVEDTYEIRHRILRPHQSIEQCKYKEDHAEGSFHLGVFYDGTLISIASFSPQSQPLLTEASAYRLRGMATLEGYRDQKAGSTLIKHAEHKLAESGVQAVWCNARHHVKGYYAKLGWKELGEPFDIPGIGNHIVMYKTLRTSR
GAT activity [2]: detectable GAT activity

B2: SEQ ID NO:549: GAT variant transgene (nucleic acid)
DNA: ATGATAGAGGTGAAACCGATTAACGCAGAGGATACCTATGAACTAAGGCATAGAATACTCAGACCAAACCAGCCGATAGAAGCGTGTATGTTTGAAAGCGATTTACTTCGTGGTGCATTTCACTTAGGCGGCTATTACGGGGGCAAACTGATTTCCATAGCTTCATTCCACCAGGCCGAGCACTCAGAACTCCAAGGCCAGAAACAGTACCAGCTCCGAGGTATGGCTACCTTGGAAGGTTATCGTGAGCAGAAGGCGGGATCGAGTCTAATTAAACACGCTGAAGAAATTCTTCGTAAGAGGGGGGCGGACTTGCTTTGGTGTAATGCGCGGACATCCGCCTCAGGCTACTACAAAAAGTTAGGCTTCAGCGAGCAGGGAGAGGTATTCGACACGCCGCCAGTAGGACCTCACATCCTGATGTATAAAAGGATCACATAA
modifications: Synthetic DNA Sequence; D_S00260796_17-15H3
notes: GAT variant transgene
T1 field glyphosate tolerance (maize plants [3]): correlated well with the results previously obtained in the greenhouse | effect of temperature on glyphosate tolerance (maize plants [4]): glyphosate tolerance is not adversely effected by the range of temperatures tested

B3: SEQ ID NO:7: GAT enzyme isolated from a strain of B. licheniformis (strain B6) (protein)
chain: MIEVKPINAEDTYEIRHRILRPNQPLEACKYETDLLGGTFHLGGYYRDRLISIASFHQAEHSELEGQKQYQLRGMATLEGYREQKAGSTLIRHAEELLRKKGADLLWCNARTSVSGYYKKLGFSEQGGVYDIPPIGPHILMYKKLT
modifications: Unidentified microorganism derived from soil sample.; B6 GAT
Kcat ([5]; calculated from Vmax at a known concentration of enzyme): 0.1 s⁻¹ | Km [5]: ~2 µM | Km ([5]; listed as B6): 2 µM | Km [6]: ~2900 µM | Km ([6]; listed as B6): 2900 ± 200 µM | transfer of propionyl group to glyphosate [7]: glyphosate-dependent hydrolysis of propionyl CoA

B4: SEQ ID NO:814: GAT variant transgene (nucleic acid)
DNA: ATGATAGAGGTGAAACCGATTAACGCAGAGGATACCTATGAACTAAGGCATAGAATACTCAGACCAAACCAGCCGATAGAAGCGTGTATGTTTGAAAGCGATTTACTTCGTGGTGCATTTCACTTAGGCGGCTTTTACAGGGGCAAACTGATTTCCATAGCTTCATTCCACCAGGCCGAGCACTCGGAACTCCAAGGCCAGAAACAGTACCAGCTCCGAGGTATGGCTACCTTGGAAGGTTATCGTGAGCAGAAAGCGGGATCAACTCTAGTTAAACACGCTGAAGAAATCCTTCGTAAGAGGGGGGCGGACATGCTTTGGTGTAATGCGCGGACATCCGCCTCAGGCTACTACAAAAAGTTAGGCTTCAGCGAGCAGGGAGAGATATTTGACACGCCGCCAGTAGGACCTCACATCCTGATGTATAAAAGGATCACATAA
modifications: Synthetic DNA Sequence; CDS (1)...(441); 18-28D9b
notes: GAT variant transgene
T1 field glyphosate tolerance (maize plants [3]): correlated well with the results previously obtained in the greenhouse | effect of temperature on glyphosate tolerance (maize plants [4]): glyphosate tolerance is not adversely effected by the range of temperatures tested
